Measurements published in US20210253718A1, “FRIZZLED5 PROTEIN-BINDING AGENTS” (Modmab Therapeutics Corporation, priority 2016, published 2021).

T1: FZD10 CRD (Homo sapiens, UniProt Q9ULW2)
T1 construct: 30-156; GPI anchor signal (C); expressed in transfected cells; host or cells: CHO cells, lentiviral pLenti-puro
T1 sequence (Q9ULW2 30-156): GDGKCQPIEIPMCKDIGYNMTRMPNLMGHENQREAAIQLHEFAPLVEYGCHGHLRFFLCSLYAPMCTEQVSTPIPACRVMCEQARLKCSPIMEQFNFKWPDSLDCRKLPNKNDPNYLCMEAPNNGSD

T2: FZD3 CRD (Homo sapiens, UniProt Q9NPG1)
T2 construct: CRD of FZD1, FZD2, FZD3, FZD4, FZD5, FZD6, FZD7, FZD8, FZD9 or FZD10; GPI anchor signal (C); expressed in transfected cells; host or cells: CHO cells, lentiviral pLenti-puro
T2 sequence (Q9NPG1 23-136 limits assumed): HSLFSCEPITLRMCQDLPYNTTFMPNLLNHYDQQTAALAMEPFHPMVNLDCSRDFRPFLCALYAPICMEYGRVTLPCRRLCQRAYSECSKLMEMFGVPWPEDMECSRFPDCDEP

T3: FZD4 CRD (Homo sapiens, UniProt Q9ULV1)
T3 construct: E42-V167; GPI anchor signal (C); expressed in transfected cells; host or cells: CHO cells, lentiviral pLenti-puro
T3 sequence (Q9ULV1 42-167): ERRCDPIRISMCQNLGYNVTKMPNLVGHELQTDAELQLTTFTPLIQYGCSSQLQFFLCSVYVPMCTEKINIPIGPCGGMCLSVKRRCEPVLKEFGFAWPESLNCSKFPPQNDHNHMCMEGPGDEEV

T4: FZD5 CRD (Homo sapiens, UniProt Q13467)
T4 construct: K29-T156; GPI anchor signal (C); expressed in transfected cells; host or cells: CHO cells, lentiviral pLenti-puro
T4 sequence (Q13467 29-156): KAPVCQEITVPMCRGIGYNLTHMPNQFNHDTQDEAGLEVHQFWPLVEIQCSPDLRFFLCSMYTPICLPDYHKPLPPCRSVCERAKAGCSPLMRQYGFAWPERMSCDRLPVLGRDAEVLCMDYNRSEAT

T5: FZD6 CRD (Homo sapiens, UniProt O60353)
T5 construct: S20-P146; GPI anchor signal (C); expressed in transfected cells; host or cells: CHO cells, lentiviral pLenti-puro
T5 sequence (O60353 20-146): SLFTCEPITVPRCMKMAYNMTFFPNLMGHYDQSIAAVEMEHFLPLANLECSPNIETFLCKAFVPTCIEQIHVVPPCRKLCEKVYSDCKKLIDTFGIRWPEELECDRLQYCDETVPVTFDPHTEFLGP

T6: FZD8 CRD (Homo sapiens, UniProt Q9H461)
T6 construct: K31-D155; GPI anchor signal (C); expressed in transfected cells; host or cells: CHO cells, lentiviral pLenti-puro
T6 sequence (Q9H461 31-155): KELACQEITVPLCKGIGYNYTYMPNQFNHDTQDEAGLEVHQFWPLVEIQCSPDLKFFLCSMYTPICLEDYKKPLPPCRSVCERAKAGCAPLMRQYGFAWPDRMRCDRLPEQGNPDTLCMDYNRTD


How the values were obtained:
FZD10 CRD = target: T1, FZD10 CRD; experiment: Immunofluorescence of anti-FZD5 Fab binding to CHO cells overexpressing Frizzled CRD; parameters: key: −: no binding; +: very weak binder; ++: weak binder; +++: good binder; ++++: very good binder
Procedure: (§1) Plasmids: pLCKO lentiviral vector used for knockout (TKO) library construction and expression of individual gRNAs was constructed as described previously (Hart et al., 2015). Briefly, single guide RNA (sgRNA) scaffold was amplified from px330 (Addgene 42230) and cloned into pLKO.TRC005 lentiviral vector (Broad Institute, Cambridge, Mass.) using AgeI/EcoRI restriction sites. BfuAI sites were added at the 5′ end of the sgRNA scaffold for cloning the TKO library or individual gRNA target sequences. Lenti Cas9-2A-BsdR vector used to generate Cas9 stable expression cell lines was constructed as described previously (Hart et al., 2015). Briefly, lentiCRISPR pXPR_001 (Addgene 49535) was modified through removal of the sgRNA scaffold region through NdeI/EcoRI digest and blunt ends generation using Large Klenow Fragment (NEB). 2A-puro was replaced with 2A-BsdR by PCR using the NheI/MluI sites. Each of the 10 human Frizzled cysteine rich domains (CRDs) were cloned into the lentiviral expression plasmid pLenti-puro in the following cassette: FZD_CRD-MYC-GPI.
(§2) To confirm that the FZD5-WNT7B circuit is not driven simply by expression and rule out the possibility of a disconnect between RNA and protein levels for the Wnt receptors in HPAF-II cells, a panel of recombinant Fabs were generated, alternatively referred to herein as ‘Frizzled profiler’, that can detect and discriminate all but one of the ten Frizzled receptors. […] To characterize the binding specificity of these Fabs on cells, a panel of 10 CHO cell lines was generated, each expressing the CRD domain of a different myc-tagged Frizzled family member anchored at the plasma membrane through a GPI anchor (CHO-myc-FZDGPI). Despite the high sequence identity between Frizzled family members (FIG. 7A, FIG. 7B), selective Fabs were identified for FZD4, FZD5, FZD6 and FZD10 as assessed by immunofluorescence and flow cytometry (FIG. 7D and FIG. 8). […] The FZD8 CRD is most homologous to that of FZD5 (FIG. 7B). These Fabs can be used to discriminate expression of FZD1, FZD2, FZD4, FZD5, FZD6, FZD7, FZD8, FZD9 and FZD10 (FIG. 7D and FIG. 8). The ‘Frizzled profiler’ therefore consists of 10 different Fabs that can be used to discriminate expression of 9 different Frizzled family members. The Frizzled profiler was then used to confirm that HPAF-II cells express FZD1, FZD5, FZD6 and possibly FZD8 (FIG. 7E).
(§3) The binding of anti-FZD5 Fabs to cell surface-expressed Frizzled protein was further determined for each member of the Frizzled family via flow cytometry and immunofluorescence analysis of a panel of 10 CHO cell lines, each ectopically over-expressing the extracellular cysteine-rich domain (CRD) of a different Frizzled protein family member.

FZD3 CRD = target: T2, FZD3 CRD; experiment: as above; parameters: key: −: no binding; +: very weak binder; ++: weak binder; +++: good binder; ++++: very good binder
Procedure: as §1, §2, §3

FZD4 CRD = target: T3, FZD4 CRD; experiment: as above; parameters: key: −: no binding; +: very weak binder; ++: weak binder; +++: good binder; ++++: very good binder
Procedure: as §1, §2, §3

FZD5 CRD = target: T4, FZD5 CRD; experiment: as above; parameters: key: −: no binding; +: very weak binder; ++: weak binder; +++: good binder; ++++: very good binder
Procedure: as §1, §2, §3

FZD6 CRD = target: T5, FZD6 CRD; experiment: as above; parameters: key: −: no binding; +: very weak binder; ++: weak binder; +++: good binder; ++++: very good binder
Procedure: as §1, §2, §3

FZD8 CRD = target: T6, FZD8 CRD; experiment: as above; parameters: key: −: no binding; +: very weak binder; ++: weak binder; +++: good binder; ++++: very good binder
Procedure: as §1, §2, §3

ASPC-1 cells = experiment: Effect of anti-FZD5 Fabs on proliferation of pancreatic cancer cell lines (percent growth inhibition); assay type: cell-based, human; details: Fab 2 μg/ml
RWP1 cells = experiment: as above; assay type: cell-based, human; details: Fab 2 μg/ml

| Molecule | Immunofluorescence binding, Frizzled CRD overexpressed on CHO cells: FZD10 (FZD10 CRD) | Immunofluorescence binding, Frizzled CRD overexpressed on CHO cells: FZD3 (FZD3 CRD) | Immunofluorescence binding, Frizzled CRD overexpressed on CHO cells: FZD4 (FZD4 CRD) | Immunofluorescence binding, Frizzled CRD overexpressed on CHO cells: FZD5 (FZD5 CRD) | Immunofluorescence binding, Frizzled CRD overexpressed on CHO cells: FZD6 (FZD6 CRD) | Immunofluorescence binding, Frizzled CRD overexpressed on CHO cells: FZD8 (FZD8 CRD) | percent growth inhibition, ASPC-1 2 μg/ml (ASPC-1 cells) | percent growth inhibition, RWP1 2 μg/ml (RWP1 cells) |
| --- | --- | --- | --- | --- | --- | --- | --- | --- |
| Fab-2901: anti-FZD5 Fab with antibody variable region Fv-2901; CDR SEQ ID NOs: 35, 36, 40, 79, 116, 154 (antibody, V domains shown) VH: EVQLVESGGGLVQPGGSLRLSCAASGFNISYSYMHWVRQAPGKGLEWVASIYSYSSYTYYADSVKGRFTISADTSKNTAYLQMNSLRAEDTAVYYCARSWYYWSPSSGMDYWGQGTLVTVSS VL: DIQMTQSPSSLSASVGDRVTITCRASQSVSSAVAWYQQKPGKAPKLLIYSASSLYSGVPSRFSGSRSGTDFTLTISSLQPEDFATYYCQQGGFLITFGQGTKVEIK | − | − | − | ++++ | − | + | −8.27% | −19.95% |
| Fab-2898: anti-FZD5 Fab with antibody variable region Fv-2898; CDR SEQ ID NOs: 35, 36, 37, 76, 113, 152 (antibody, V domains shown) VH: EVQLVESGGGLVQPGGSLRLSCAASGFNIYSYSMHWVRQAPGKGLEWVASIYSSSGSTSYADSVKGRFTISADTSKNTAYLQMNSLRAEDTAVYYCARAVWGLDYWGQGTLVTVSS VL: DIQMTQSPSSLSASVGDRVTITCRASQSVSSAVAWYQQKPGKAPKLLIYSASSLYSGVPSRFSGSRSGTDFTLTISSLQPEDFATYYCQQWWGYYSLITFGQGTKVEIK | − | − | − | +++ | − | + | 11.14% | 21.46% |
| Fab-2902: anti-FZD5 Fab with antibody variable region Fv-2902; CDR SEQ ID NOs: 35, 36, 41, 80, 117, 153 (antibody, V domains shown) VH: EVQLVESGGGLVQPGGSLRLSCAASGFNISYYYIHWVRQAPGKGLEWVASISSSSSSTSYADSVKGRFTISADTSKNTAYLQMNSLRAEDTAVYYCARGALDYWGQGTLVTVSS VL: DIQMTQSPSSLSASVGDRVTITCRASQSVSSAVAWYQQKPGKAPKLLIYSASSLYSGVPSRFSGSRSGTDFTLTISSLQPEDFATYYCQQWYAFGALITFGQGTKVEIK | − | − | − | ++++ | − | ++ | 10.84% | 26.56% |
| Fab-2900: anti-FZD5 Fab with antibody variable region Fv-2900; CDR SEQ ID NOs: 35, 36, 39, 78, 115, 153 (antibody, V domains shown) VH: EVQLVESGGGLVQPGGSLRLSCAASGFNLSSYYIHWVRQAPGKGLEWVASISSSSSSTSYADSVKGRFTISADTSKNTAYLQMNSLRAEDTAVYYCARGALDYWGQGTLVTVSS VL: DIQMTQSPSSLSASVGDRVTITCRASQSVSSAVAWYQQKPGKAPKLLIYSASSLYSGVPSRFSGSRSGTDFTLTISSLQPEDFATYYCQQWYSGSSLFTFGQGTKVEIK | − | − | − | ++++ | − | + | −13.30% | −28.30% |
| Fab-2899: anti-FZD5 Fab with antibody variable region Fv-2899; CDR SEQ ID NOs: 35, 36, 38, 77, 114, 153 (antibody, V domains shown) VH: EVQLVESGGGLVQPGGSLRLSCAASGFNLYYYYMHWVRQAPGKGLEWVASIYPSSGSTSYADSVKGRFTISADTSKNTAYLQMNSLRAEDTAVYYCARGALDYWGQGTLVTVSS VL: DIQMTQSPSSLSASVGDRVTITCRASQSVSSAVAWYQQKPGKAPKLLIYSASSLYSGVPSRFSGSRSGTDFTLTISSLQPEDFATYYCQQWYSSYGLITFGQGTKVEIK | − | − | − | +++ | − | + | 37.97% | 37.95% |
